According to the supplement of paper PMC5998384:

Columns and labels:
HeLa Kyoto [1] = test: solubility in G1/S (NP-40 vs SDS abundance) (log2 ratio); higher = more soluble; conditions: cell cycle stage: G1/S
HeLa Kyoto [2] = test: melting temperature (median over replicates), in situ; higher = more thermally stable
HeLa Kyoto [3] = test: solubility change mitosis vs G1/S (difference of NP-40 vs SDS log2 ratios) (log2 ratio difference); higher = more soluble in mitosis
HeLa Kyoto [4] = test: thermal stability score vs G1/S (z-score of summed log2 fold changes over temperatures); higher = more thermally stable than in G1/S
[5] = cell cycle stage: early G1 (4.5 h after nocodazole release)
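Wherever melting temperature (median over replicates), in situ is given: HeLa Kyoto cells synchronized by double thymidine or nocodazole block, proteins quantified by TMT10plex mass spectrometry, three independent biological replicates.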
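Wherever solubility change mitosis vs G1/S (difference of NP-40 vs SDS log2 ratios) is given: synchronized HeLa Kyoto cells (double thymidine block for G1/S, nocodazole release for mitosis), protein amounts in NP-40 versus SDS lysates quantified by mass spectrometry, three biological replicates.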
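Wherever solubility in G1/S (NP-40 vs SDS abundance) is given: HeLa Kyoto cells arrested at G1/S by double thymidine block, proteins quantified by TMT10plex mass spectrometry in mild NP-40 versus SDS extracts, three biological replicates.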
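Wherever thermal stability score vs G1/S (z-score of summed log2 fold changes over temperatures) is given: synchronized HeLa Kyoto cells, proteins quantified by TMT10plex mass spectrometry, three biological replicates, mitosis taken 0.5 h after nocodazole release, G1/S directly after double thymidine block.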

Sequence | solubility in G1/S (log2) (HeLa Kyoto [1]) | melting temperature (HeLa Kyoto [2]; cell cycle stage: G1/S) [°C] | melting temperature (HeLa Kyoto [2]; cell cycle stage: mitosis) [°C] | solubility change mitosis (log2) (HeLa Kyoto [3]) | thermal stability score (HeLa Kyoto [4]; [5]) | thermal stability score (HeLa Kyoto [4]; cell cycle stage: mitosis)
MPGETEEPRPPEQQDQEGGEAAKAAPEEPQQRPPEAVAAAPAGTTSSRVLRGGRDRGRAAAAAAAAAVSRRRKAEYPRRRRSSPSARPPDVPGQQPQAAKSPSPVQGKKSPRLLCIEKVTTDKDPKEEKEEEDDSALPQEVSIAASRPSRGWRSSRTSVSRHRDTENTRSSRSKTGSLQLICKSEPNTDQLDYDVGEEHQSPGGISSEEEEEEEEEMLISEEEIPFKDDPRDETYKPHLERETPKPRRKSGKVKEEKEKKEIKVEVEVEVKEEENEIREDEEPPRKRGRRRKDDKSPRLPKRRKKPPIQYVRCEMEGCGTVLAHPRYLQHHIKYQHLLKKKYVCPHPSCGRLFRLQKQLLRHAKHHTDQRDYICEYCARAFKSSHNLAVHRMIHTGEKPLQCEICGFTCRQKASLNWHMKKHDADSFYQFSCNICGKKFEKKDSVVAHKAKSHPEVLIAEALAANAGALITSTDILGTNPESLTQPSDGQGLPLLPEPLGNSTSGECLLLEAEGMSKSYCSGTERVSLMADGKIFVGSGSSGGTEGLVMNSDILGATTEVLIEDSDSAGP [ZFP91] | -0.401 | 51.9 | 53.2 | 0.0732 | 2.06 | 1.42
MPGKLKVKIVAGRHLPVMDRASDLTDAFVEVKFGNTTFKTDVYLKSLNPQWNSEWFKFEVDDEDLQDEPLQITVLDHDTYSANDAIGKVYIDIDPLLYSEAATVISGWFPIYDTIHGIRGEINVVVKVDLFNDLNRFRQSSCGVKFFCTTSIPKCYRAVIIHGFVEELVVNEDPEYQWIDRIRTPRASNEARQRLISLMSGELQRKIGLKVLEMRGNAVVGYLQCFDLEGESGLVVRAIGTACTLDKLSSPAAFLPACNSPSKEMKEIPFNEDPNPNTHSSGPSTPLKNQTYSFSPSKSYSRQSSSSDTDLSLTPKTGMGSGSAGKEGGPFKALLRQQTQSALEQREFPFFTLTAFPPGFLVHVGGVVSARSVKLLDRIHNPDEPETRDAWWAEIRQEIKSHAKALGCHAVVGYSESTSICEEVCILSASGTAAVLNPRFLQDGTVEGCLEQRLEENLPTRCGFCHIPYDELNMPFPAHLTYCYNCRKQKVPDVLFTTIDLPTDATVIGKGCLIQARLCRLKKKAQAEANATAISNLLPFMEYEVHTQLMNKLKLKGMNALFGLRIQITVGENMLMGLASATGVYLAALPTPGGIQIAGKTPNDGSYEQHISHMQKKINDTIAKNKELYEINPPEISEEIIGSPIPEPRQRSRLLRSQSESSDEVTELDLSHGKKDAFVLEIDDTDAMEDVHSLLTDVPPPSGFYSCNTEIMPGINNWTSEIQMFTSVRVIRLSSLNLTNQALNKNFNDLCENLLKSLYFKLRSMIPCCLCHVNFTVSLPEDELIQVTVTAVAITFDKNQALQTTKTPVEKSLQRASTDNEELLQFPLELCSDSLPSHPFPPAKAMTVEKASPVGDGNFRNRSAPPCANSTVGVVKMTPLSFIPGAKITKYLGIINMFFIRETTSLREEGGVSGFLHAFIAEVFAMVRAHVAALGGNAVVSYIMKQCVFMENPNKNQAQCLINVSGDAVVFVRESDLEVVSSQQPTTNCQSSCTEGEVTT [C2CD5] | 0.000995 | 52.2 | 52.3 | -0.067 | 0.25 | -0.02
MPGVIPSESNGLSRGSPSKKNRLSLKFFQKKETKRALDFTDSQENEEKASEYRASEIDQVVPAAQSSPINCEKRENLLPFVGLNNLGNTCYLNSILQVLYFCPGFKSGVKHLFNIISRKKEALKDEANQKDKGNCKEDSLASYELICSLQSLIISVEQLQASFLLNPEKYTDELATQPRRLLNTLRELNPMYEGYLQHDAQEVLQCILGNIQETCQLLKKEEVKNVAELPTKVEEIPHPKEEMNGINSIEMDSMRHSEDFKEKLPKGNGKRKSDTEFGNMKKKVKLSKEHQSLEENQRQTRSKRKATSDTLESPPKIIPKYISENESPRPSQKKSRVKINWLKSATKQPSILSKFCSLGKITTNQGVKGQSKENECDPEEDLGKCESDNTTNGCGLESPGNTVTPVNVNEVKPINKGEEQIGFELVEKLFQGQLVLRTRCLECESLTERREDFQDISVPVQEDELSKVEESSEISPEPKTEMKTLRWAISQFASVERIVGEDKYFCENCHHYTEAERSLLFDKMPEVITIHLKCFAASGLEFDCYGGGLSKINTPLLTPLKLSLEEWSTKPTNDSYGLFAVVMHSGITISSGHYTASVKVTDLNSLELDKGNFVVDQMCEIGKPEPLNEEEARGVVENYNDEEVSIRVGGNTQPSKVLNKKNVEAIGLLGGQKSKADYELYNKASNPDKVASTAFAENRNSETSDTTGTHESDRNKESSDQTGINISGFENKISYVVQSLKEYEGKWLLFDDSEVKVTEEKDFLNSLSPSTSPTSTPYLLFYKKL [USP1] | -0.118 | 48.8 |  | -0.0658 | 0.238 | 1.6
